Data set [1] deals with AhR-ARNT heterodimer (human AhR + human ARNT) (Homo sapiens, UniProt P35869;P27540 P35869:1-848,P27540:1-789). In words: EMSA; 20 nM TCDD, 2 h room temperature; poly dIdC; ligand dependent. The settings on record: tags: reticulocyte lysate TNT; label: 32P end-label; 5' TCGA overhangs. Here is the method:
(§1) A complementary pair of synthetic oligonucleotides, 5'-[…]-3' Sequence ID. No. 16 and 5'-TCGAGCTGGGC-CCATTGCGTGATCTAC-3' Sequence ID. No. 17 (containing DRE3) were annealed and end-labeled with gamma ^32P-labeled deoxyadenosine triphosphate as described. Sambrook, J., Fritsch, E. F., Maniatis, T., *Molecular Cloning: A Laboratory Manual/second edition* (Cold Spring Harbor Laboratory Press, 1989). Cytosolic extracts (35 μg of protein) obtained from either human SCC cells or murine Hepa 1c1c7 cells (From James P. Whitlock Jr.) were incubated in the presence of DMSO (−) or 20 nM TCDD (+) for 2 hours at either room temperature (human) or 30° (murine). Nonspecific competitor, poly dIdC, was added and incubated 15 minutes at room temperature. The radiolabeled probe was then added and incubated 15 minutes at room temperature followed by nondenaturing gel electrophoresis. In vitro translated human AhR and ARNT proteins were incubated with either DMSO (−) or 20 nM TCDD (+) for 2 hours at room temperature followed by gel shift assays as described above. In vitro translated mouse AhR and humanARNT proteins were incubated with either DMSO (−) or 20 nM TCDD (+) for 2 hours at 30° followed by electrophoretic mobility shift assays.
On the technique in general: In EMSA bound probe runs differently from free probe, usually more slowly.

Another data set has as its target ARNT alone (Homo sapiens, UniProt P27540 P27540:1-789). The data set can be described thus: EMSA; no binding without AhR. Particulars: label: 32P end-label; 5' TCGA overhangs. Here is the method: as §1
In data set [2] the target is AhR-ARNT heterodimer (mouse AhR + human ARNT) (Mus musculus / Homo sapiens, UniProt P30561;P27540 P30561:1-805,P27540:1-789). The data set can be described thus: EMSA; 20 nM TCDD, 2 h 30 C; poly dIdC; ligand dependent. Particulars: tags: reticulocyte lysate TNT; label: 32P end-label; 5' TCGA overhangs. Here is the method: as §1
The target in another data set is T1, AhR (human) alone (Homo sapiens, UniProt P35869 SEQ:1-848).
T1 chain: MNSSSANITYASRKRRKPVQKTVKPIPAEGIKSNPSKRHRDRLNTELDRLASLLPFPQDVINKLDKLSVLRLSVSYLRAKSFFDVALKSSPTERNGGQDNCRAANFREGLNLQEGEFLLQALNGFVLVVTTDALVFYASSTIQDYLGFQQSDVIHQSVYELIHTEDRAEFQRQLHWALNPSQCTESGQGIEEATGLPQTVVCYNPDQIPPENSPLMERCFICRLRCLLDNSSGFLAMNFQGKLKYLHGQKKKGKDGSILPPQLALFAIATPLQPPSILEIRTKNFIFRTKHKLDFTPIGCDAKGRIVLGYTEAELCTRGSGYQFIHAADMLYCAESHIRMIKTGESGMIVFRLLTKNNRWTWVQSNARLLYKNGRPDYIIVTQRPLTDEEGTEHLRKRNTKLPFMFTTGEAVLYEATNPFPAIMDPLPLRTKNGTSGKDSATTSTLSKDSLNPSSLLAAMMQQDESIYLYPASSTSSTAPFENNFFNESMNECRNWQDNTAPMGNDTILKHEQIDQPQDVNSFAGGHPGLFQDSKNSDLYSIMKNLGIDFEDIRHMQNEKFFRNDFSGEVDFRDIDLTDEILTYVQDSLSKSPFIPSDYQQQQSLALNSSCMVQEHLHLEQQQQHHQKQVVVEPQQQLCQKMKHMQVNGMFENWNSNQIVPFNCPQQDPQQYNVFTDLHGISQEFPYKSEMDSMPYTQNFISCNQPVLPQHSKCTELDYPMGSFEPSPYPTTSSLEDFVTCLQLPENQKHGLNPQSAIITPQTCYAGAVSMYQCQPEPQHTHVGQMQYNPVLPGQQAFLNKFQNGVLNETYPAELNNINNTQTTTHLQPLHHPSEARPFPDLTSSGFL
In words: EMSA; no binding without ARNT. Particulars: label: 32P end-label; 5' TCGA overhangs. Here is the method: as §1

ARNT alone, sequence (P27540 whole entry, one chain of several): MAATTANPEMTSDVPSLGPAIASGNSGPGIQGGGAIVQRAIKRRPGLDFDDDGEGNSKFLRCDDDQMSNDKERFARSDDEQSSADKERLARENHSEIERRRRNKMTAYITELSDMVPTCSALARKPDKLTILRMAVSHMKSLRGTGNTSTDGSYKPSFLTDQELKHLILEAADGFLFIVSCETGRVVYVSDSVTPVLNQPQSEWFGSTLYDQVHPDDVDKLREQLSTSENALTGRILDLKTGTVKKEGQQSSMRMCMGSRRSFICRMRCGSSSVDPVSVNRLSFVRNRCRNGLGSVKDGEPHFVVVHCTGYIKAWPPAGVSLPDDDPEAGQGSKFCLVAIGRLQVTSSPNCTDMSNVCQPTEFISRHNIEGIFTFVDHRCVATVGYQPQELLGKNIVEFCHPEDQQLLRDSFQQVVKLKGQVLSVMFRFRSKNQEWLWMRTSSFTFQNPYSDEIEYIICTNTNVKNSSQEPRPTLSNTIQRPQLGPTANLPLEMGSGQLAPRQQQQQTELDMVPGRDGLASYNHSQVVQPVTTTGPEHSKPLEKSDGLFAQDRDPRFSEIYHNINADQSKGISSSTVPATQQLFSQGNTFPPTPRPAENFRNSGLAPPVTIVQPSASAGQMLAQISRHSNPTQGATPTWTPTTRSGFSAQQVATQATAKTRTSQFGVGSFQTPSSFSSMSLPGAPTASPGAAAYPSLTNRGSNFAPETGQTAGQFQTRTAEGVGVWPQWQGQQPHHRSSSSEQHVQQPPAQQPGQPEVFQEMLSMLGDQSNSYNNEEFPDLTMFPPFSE
AhR-ARNT heterodimer (human AhR + human ARNT), sequence (P27540 whole entry, one chain of several): as above
AhR-ARNT heterodimer (mouse AhR + human ARNT), sequence (P30561 1-805, chain 1 of 2): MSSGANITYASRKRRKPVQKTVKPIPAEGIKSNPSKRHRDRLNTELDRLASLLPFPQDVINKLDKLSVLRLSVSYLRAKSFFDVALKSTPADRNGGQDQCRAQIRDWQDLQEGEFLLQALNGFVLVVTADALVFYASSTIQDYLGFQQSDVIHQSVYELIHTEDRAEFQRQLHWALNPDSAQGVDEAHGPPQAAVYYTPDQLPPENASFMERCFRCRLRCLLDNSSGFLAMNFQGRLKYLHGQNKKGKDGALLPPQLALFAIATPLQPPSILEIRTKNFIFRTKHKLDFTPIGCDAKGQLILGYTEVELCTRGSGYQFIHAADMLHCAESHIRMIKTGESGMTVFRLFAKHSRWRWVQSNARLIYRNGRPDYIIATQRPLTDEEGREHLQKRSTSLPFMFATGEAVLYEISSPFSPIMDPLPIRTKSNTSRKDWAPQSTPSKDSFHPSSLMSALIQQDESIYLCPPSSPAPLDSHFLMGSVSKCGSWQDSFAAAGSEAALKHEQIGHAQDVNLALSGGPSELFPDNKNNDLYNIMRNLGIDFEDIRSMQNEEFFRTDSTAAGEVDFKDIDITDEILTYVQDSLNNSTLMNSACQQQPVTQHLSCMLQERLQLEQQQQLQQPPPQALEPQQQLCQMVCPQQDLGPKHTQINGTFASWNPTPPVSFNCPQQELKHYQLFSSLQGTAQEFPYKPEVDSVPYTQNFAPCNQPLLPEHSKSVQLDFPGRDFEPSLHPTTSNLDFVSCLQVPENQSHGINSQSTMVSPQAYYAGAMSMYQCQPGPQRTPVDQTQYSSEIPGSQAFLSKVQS
AhR-ARNT heterodimer (mouse AhR + human ARNT), sequence (P27540 whole entry, chain 2 of 2): as the sequence (P27540 whole entry, one chain of several) above

B1: DRE3 (dsDNA)
DNA 1: TCGAGTAGATCACGCAATGGGCCCAGC
DNA 2: TCGAGCTGGGCCCATTGCGTGATCTAC
Regarding B1, the binding result in data set [1] was “binds”; in the data set with ARNT alone, “no binding”; in data set [2], “binds”; with AhR (human) alone, “no binding”.

The record behind these values is US5378822, “Nucleic acids encoding murine and human Ah receptors” (Wisconsin Alumni Research).
